Source: patent US20260224723A1, “ANTI-B7H3 ANTIBODY-DRUG CONJUGATE AND USE THEREOF” (Duality Biologics (Suzhou) Co., Ltd., priority 2022, published 2026)

Experiments:
[1] = biological target: Human full-length B7H3 on MCF-7 cells (human) (UniProt Q5ZPR3); experiment: FACS on MCF-7 cells, Alexa 647 anti-human secondary
[2] = biological target: Human full-length B7H3 on MCF-7 cells (human) (UniProt Q5ZPR3); experiment: cell-based or functional assay
[3] = biological target: Cynomolgus monkey full-length B7H3 on transfected FlpinCHO cells (cynomolgus monkey); experiment: FACS on cynomolgus monkey B7H3-transfected FlpinCHO cell pool; negative control

Row | EC50 [1] | Maximum MFI [1] | Antibody internalization EC50 [2] | Antibody internalization Maximum MFI [2] | Maximum MFI [3] | Substance
1 | 2.49 nM | 4640 MFI | 1.95 nM | 39800 MFI | – | Enoblituzumab (MacroGenics) (antibody)
2 | – | – | – | 21 MFI | 6.67 MFI | hIgG1 isotype (antibody)
